This is an account of results in a protein production outcome set (Wang et al. 2014).

The data set in a line: label from the status in PepcDB records.
Turning to “MRSPIKLEFSEKYDKDHAREYFLKHQDGLARRLSHKRDEQLARRALALAGEPGLVLDLPCGAGRFWPLLAEKPNRVIIGADNSEAMIETACAAQPPEVVARVRPLQTSAFAIDLPDNAVDSIFCMRLFHHIGESAHRKTILSEFQRVSRDSVILSLWVDGNFKAWRRKKLEQRRSAKAEQDNYQNRFVLPAETVEEEFRAAGFRIQERLDFLPFYAMWRVYVLRKG”, the protein production result is “failed”. Turning to “MRSTKIVCTVGPRTDSYEMIEKMIDLGVNVFRINTSHGDWNEQEQKILKIKDLREKKKKPVAILIDLAGPKIRTGYLEKEFVELKEGQIFTLTTKEILGNEHIVSVNLSSLPKDVKKGDTILLSDGEIVLEVIETTDTEVKTVVKVGGKITHRRGVNVPTADLSVESITDRDREFIKLGTLHDVEFFALSFVRKPEDVLKAKEEIRKHGKEIPVISKIETKKALERLEEIIKVSDGIMVARGDLGVEIPIEEVPIVQKEIIKLSKYYSKPVIVATQILESMIENPFPTRAEVTDIANAIFDGADALLLTAETAVGKHPLEAIKVLSKVAKEAEKKLEFFRTIEYDTSDISEAISHACWQLSESLNAKLIITPTISGSTAVRVSKYNVSQPIVALTPEEKTYYRLSLVRKVIPVLAEKCSQELEFIEKGLKKVEEMGLAEKGDLVVLTSGVPGKVGTTNTIRVLKVD”, the protein production result is “not failed”. “MRSVRKRTVLVSTLLALVLTQVARADDKGSHPAVIGDVHFKVECNATAQAKFNVAVAYYHSFQWQRVIATADDVLKVDPTCGMAHWVKALAMLDNPFAWPVTLSEKAIAEGPVLLDAARKAGLKTQRERDYVDALAIFFKDLNTTNYRERAESFEKAMAQLAQQNADDSEATVLYALILSRNFDPTDKTYRNQLHAAELLEPIFAREPNHPGVAHYLIHSYDYPPLAKRGIDAARKYAKIAPDTPHSLHMPSHIFTLTGFWQESIDTNRRAAEMADDSITHDGHHASDYMVYAHLQLGQDLAARKIMEQEQVRHGIDMIGVAYPYAAIPARIALERRAWREAADLPLYARDTYPWKKYPQAEAVNAFARGVGSAMSGEPAKANFEAKRLIKLRDAATAMKLNYWADQIDIQAEVVRGLADFAEGKRDEGIAILHRAAEREDASAKNVVTPGPVVPAREMLATILERDRKPADALAEFEKVLEQHPNRYRTIAGAAQNAKQAGNEQKADHYAELLLKLAEHADSPRPEIAEAKSMLGM”: the protein production result is listed as “failed”.

Turning to “MRTICVFNNKGGVGKTTLLCNLAAYFSIKRGKKVLVVDADPQCNATAYMIKEKVLDKLYASSSSDSATINSLIASLKKSKGYGIPPVLRSDGFNVDIVPGDPKFSLAEDFLAKDWLDAIAGDERGLRTTFFFRNLISWARSDGYDLVFFDMGPSLGAINRTVLLSSDHFILPMSSDIFSLRGLQNIEVALKNWTKGIERGLVSFKEDQGTSFKVESGDALSELGVSFLGYVTQQYTAKTVDGKKQPVSAYEKIIKKIDPLVSKHLILPLNKGQKLNYKLGEIPYFQSLVPMAQTATVPIFALKKADGVVGAHFDKVRQFDSVISGIVDKIEANMNSKGN”, the protein production result is “failed”. As for “MRTLGIIGFGGFGQFMVKHLQPYISVTVHDLTDLSHIAAEHKVEWGTLQETASKDIVILAVPVQFLESLLLEIKDYLKAEALIVDVSSVKVKPIELMLKHLPLTVDILGTHPLFGPQSGKNGIKGLNMVVCPVRSKKMRAITHFLRNVIQLNVLERTPETHDKQMAYVQALTHFIGRSINEMDIPDVEQKTPAYQYLLDIKRNLGGDSMDLFLTIELENPYAKKVREEFMGALKSLNDRLEHIKR”, the protein production result is listed as “failed”.

On to “MRTLLFLHLLGAAIWVGGHLVLALGILPGALRRRDPQAIRAFEQVYERIGIPALLLQVVSGLWLASLWLPFDHWFGATPVARALQLKLLLLAATAALGVHARLRLIPNLDAESLPKLGWHIAAITLVGLGFVAVGQSFRFGGAF”, for which the protein production entry is listed as “failed”. As to “MRTLLFLMLGSVSAIANAASPAPASASASAASATATATPEQIKLQLREYFFDAAREGRQDMLAEFIRSHYDLNTRDEKGYTALILAAYHGQRPAVEQLLSAGADPCAQDKRGNTALMGAIFKGELGIAKRLMQADCAPDQRNNAGQTAAMYAALFQRTDVLKDLAAKGADLSLKDGQGNDVTKLQRGEFATTPAR”, the protein production entry is “failed”.
